The values that follow come from patent publication US20060051755A1.

The assay has as its target UbAMC (Homo sapiens (Human)) (UniProt P0CG48).

Turning to GST-Bap-1 (enzyme), the Km, fluorogenic ubiquitin cleavage assay amounted to 0.5 µM.
